Assay results published in patent US20120156246A1.

Molecular target: histidine tagged PSMGFR peptide (MUC1* extra cellular domain)
Assay: SPR, histidine-tagged PSMGFR on 3.8% or 5.7% NTA SAM chip

histidine tagged PSMGFR peptide (MUC1* extra cellular domain), sequence (peptide, as listed by the source): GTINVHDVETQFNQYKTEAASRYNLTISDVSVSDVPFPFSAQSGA

## NM23-S120G (100% hexamer preparation) (from UniProt P15531 1-152) (ligand)
  SPR binding response (RUs): 70 RU
